# Measurements published in publication PMC12173945, “Import mechanism of peroxisomal proteins with an N-terminal signal sequence” (Nature Cell Biology, 2025).
# Tests used:
# yeast PEX7 = experiment: Bead-binding assay: PEX39 and PEX7 (Fig. 5c, Extended Data Fig. 9a); parameters: species or system yeast (S. cerevisiae); settings: PEX39-coated beads
# From the text: (§1) Cysteine-containing peptides were covalently conjugated to thiol-reactive SulfoLink coupling resin (Thermo Fisher, catalogue number 20401) according to the manufacturer’s instructions. The prepared beads were then mixed with Assay Buffer containing the fluorescently labelled protein as well as additional components indicated in the text, and the resulting bead suspensions were transferred to a 384-well glass-bottomed plate (Cellvis, P384-1.5H-N). GST-fusion proteins were instead mixed with glutathione agarose 4B (Prometheus, 20-543) in Assay Buffer containing the fluorescently labelled protein and additional components indicated in the text; the resulting bead suspensions were then transferred to a glass-bottomed plate as above. The plates were incubated at RT for the durations specified in the text and directly imaged on the spinning-disk confocal platform described earlier for peroxisomal import reactions in Xenopus egg extract. Note that imaging the beads directly in the binding reaction preserves the equilibrium and thereby allows even weak interactions to be detected. Fluorescence was collected through a Nikon ×10 0.45 NA Plan Apo air objective, and images were acquired using the Nikon NIS-Elements software and a 16-bit digitizer without binning. Imaging parameters were configured to maximize the SNR while avoiding saturation. […]
# PEX7–GFP in YG hydrogel = experiment: YG hydrogel release assay, PEX7–GFP (Fig. 6a-c,e); format: biochemical, yeast
# Experimental: YG hydrogels were prepared in a glass-bottomed plate as described earlier and equilibrated for 3 h at RT in Assay Buffer containing 0.5 µM PEX7–GFP or PEX5–GFP with or without PTS2 peptide and receptor at the concentrations specified in the text. Following the initial incubation, the hydrogels were imaged on a Nikon A1R point-scanning confocal system, as described earlier, with a Nikon ×10 0.45 NA Plan Apo air objective, a pinhole dilated to 1.4 Airy units and a pixel size of 2 µm. A solution of purified PEX39 was then spiked into each reaction and the hydrogels imaged every 2 min for an additional 1 h at RT.
# For the PEX7-release assay from YG hydrogels, the total fluorescence within a 30-µm-wide band in the gel extending for 150 µm from the gel edge into the gel was measured at each time point. This distance was sufficient to fully encompass the permeation front of each fluorescent species. The resulting values were then normalized to the total fluorescence inside the gel at the start of the experiment and plotted as a function of time.
# [1] = tested on: PEX5–GFP influx into YG hydrogel; experiment: Influx of PEX5–GFP into YG hydrogel in the presence of PEX39 (Fig. 6h); format: biochemical, Xenopus laevis
# Experimental: Fig. 6 PEX39 can extract PEX7 from the YG phase. a, YG hydrogels were prepared in a glass-bottomed dish and pre-equilibrated with PEX7–GFP. PEX39 was then added to the buffer and a point-scanning confocal microscope was used to follow the PEX7–GFP fluorescence over time. b, PEX7–GFP signal in the gel over time at the indicated molar ratios of wild-type PEX39 (relative to PEX7). […] The effect of PEX39 on the influx of PEX7–GFP into the gel was then assessed using a point-scanning confocal microscope. g, PEX7–GFP influx in the presence of the indicated molar ratios of wild-type PEX39 (relative to PEX7) with or without a fourfold excess of PTS2 peptide and either PEX5S or PEX5-21. […]
# A solution of the purified wild-type YG-domain polypeptide (or the variant lacking the KPWE motif) was concentrated to 2 mM in 50 mM HEPES·NaOH pH 7.8 at RT, 2 M urea and 2 mM TCEP. […] Fluorescence was excited through a 405/488/561/647 quad-band dichroic (Chroma), using a 488-nm solid-state laser (Coherent) and a galvano scanner. […]
# [2] = tested on: PEX7–receptor–cargo complex on PEX39-coated beads; experiment: Bead-binding assay: recruitment of PEX7–receptor–cargo complex to PEX39-coated beads (Fig. 7d, 8a); parameters: species or system yeast (S. cerevisiae); settings: no peptide, Fig. 7d
# From the text: Cysteine-containing peptides were covalently conjugated to thiol-reactive SulfoLink coupling resin (Thermo Fisher, catalogue number 20401) according to the manufacturer’s instructions. The prepared beads were then mixed with Assay Buffer containing the fluorescently labelled protein as well as additional components indicated in the text, and the resulting bead suspensions were transferred to a 384-well glass-bottomed plate (Cellvis, P384-1.5H-N). GST-fusion proteins were instead mixed with glutathione agarose 4B (Prometheus, 20-543) in Assay Buffer containing the fluorescently labelled protein and additional components indicated in the text; the resulting bead suspensions were then transferred to a glass-bottomed plate as above. The plates were incubated at RT for the durations specified in the text and directly imaged on the spinning-disk confocal platform described earlier for peroxisomal import reactions in Xenopus egg extract. Note that imaging the beads directly in the binding reaction preserves the equilibrium and thereby allows even weak interactions to be detected. Fluorescence was collected through a Nikon ×10 0.45 NA Plan Apo air objective, and images were acquired using the Nikon NIS-Elements software and a 16-bit digitizer without binning. Imaging parameters were configured to maximize the SNR while avoiding saturation. Samples intended to be compared were imaged using identical acquisition settings.
# [3] = tested on: PEX39–PEX7 complex and PTS2–GFP cargo; experiment: Bead-binding assay: recruitment of PTS2–GFP to PEX7- or PEX39-coated beads (Fig. 7b,c); parameters: species or system yeast (S. cerevisiae)
# From the text: as §1
molecule,measurement,setting,value
"PEX39 (WT): PEX39 from S. cerevisiae (GenBank accession no. NP_012546.4) (protein, left off: GST, N-terminal, cleaved) MAAGGELSYEELLDHILNNKPIPNIVEVPNVTLDEGLASTPSLRPRPRPWEGQLQHQSHQGSLDKPNISLDIDQESLEGMTSLTRLSECYDIQSKLQINDSDNDNDDNNNDNNKGDGNDDDNNTVTANPTAR",Recruitment / binding of PEX7 in words,yeast PEX7,could recruit PEX7–GFP
same,Extraction of PEX7–GFP from YG hydrogel,PEX7–GFP in YG hydrogel; PEX39 or mutants added to preloaded hydrogel,rapidly depleted PEX7–GFP from the hydrogel in a dose-dependent manner
same,"Extraction of PEX7–GFP from YG hydrogel, PEX5-21 complex",PEX7–GFP in YG hydrogel; with PTS2 peptide and PEX5-21,unable to efficiently extract PEX7–GFP
same,"Extraction of PEX7–GFP from YG hydrogel, PEX5S",PEX7–GFP in YG hydrogel; with PTS2 peptide and PEX5S,readily extracted
same,Effect on influx of PEX5–GFP into YG hydrogel,[1],did not prevent the influx of PEX5–GFP
same,Recruitment of PEX7–PEX5-21–PTS2–GFP complex to PEX39-coated beads,[2],could be recruited to beads coated with wild-type PEX39
same,Recruitment of PTS2–GFP cargo to PEX39–PEX7,[3],PTS2–GFP cargo was indeed recruited to PEX7-coated beads in the presence of PEX39
